Experimental data: paper PMC7588011, “Engineering Stem Cell Factor Ligands with Different c-Kit Agonistic Potencies” (Molecules, 2020)

Columns and labels:
[1] = biological target: SCFM, stem cell factor V49L F63L double mutant, soluble (UniProt P21583); experiment: small angle X-ray scattering; purified SCFWT and SCFM at 3 or 5 mg/mL (193 or 322 µM), 25 °C; radius of gyration compared with that of the theoretical monomer and dimer from PDB 1SCF
[2] = biological target: T1, recombinant c-Kit (R&D Systems) (UniProt P10721 26-524); experiment: SPR; ProteOn XPR36; c-Kit amine-coupled to a GLC chip; SCF proteins flowed in PBST at 100 µL/min, 25 °C; KD from the equilibrium-binding phase, 1:1 Langmuir model; BSA channel subtracted; conditions: both partners purified
T1 construct: c-Kit receptor tyrosine kinase, recombinant; No catalogue number printed; the discussion calls it 'recombinant soluble c-Kit'; also called surface-immobilized c-Kit; recombinant soluble c-Kit; source: bought: R&D Systems
T1 sequence (P10721 26-524): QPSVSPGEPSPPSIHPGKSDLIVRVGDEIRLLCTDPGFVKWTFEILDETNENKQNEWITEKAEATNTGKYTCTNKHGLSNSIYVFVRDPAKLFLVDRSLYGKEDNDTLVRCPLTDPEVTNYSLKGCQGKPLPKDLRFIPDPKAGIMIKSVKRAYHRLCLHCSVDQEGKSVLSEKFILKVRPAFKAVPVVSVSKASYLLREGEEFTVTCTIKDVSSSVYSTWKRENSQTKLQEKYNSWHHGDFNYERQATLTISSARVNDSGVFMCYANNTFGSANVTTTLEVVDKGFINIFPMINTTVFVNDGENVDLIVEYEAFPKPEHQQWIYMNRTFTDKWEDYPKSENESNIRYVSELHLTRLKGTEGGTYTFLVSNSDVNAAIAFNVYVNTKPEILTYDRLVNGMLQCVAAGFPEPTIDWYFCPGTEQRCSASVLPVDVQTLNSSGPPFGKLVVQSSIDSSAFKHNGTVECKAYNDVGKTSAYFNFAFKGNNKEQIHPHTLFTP

Molecule	stoichiometry N [1]	Kd [2]
SCF_(M,K91E), soluble (ligand, UniProt P21583 26-214, looked up, stem cell factor (SCF), SCFM (V49L, F63L) with K91E, selected from the first-generation yeast display library; source: purified in non-glycosylated form (production described in the Supplementary Materials)) EGICRNRVTNNVKDVTKLVANLPKDYMITLKYVPGMDVLPSHCWISEMLVQLSDSLTDLLDKLSNISEGLSNYSIIDKLVNIVDDLVECVEENSSKDLKKSFKSPEPRLFTPEEFFRIFNRSIDAFKDFVVASETSDCVVSSTLSPEKDSRVSVTKPFMLPPVAASSLRNDSSSSNRKAKNPPGDSSLH	–	88.9 nM
SCF_(M,K91E,L98R), soluble (ligand, UniProt P21583 26-214, looked up, stem cell factor (SCF), SCFM (V49L, F63L) with K91E and L98R, selected from the second-generation yeast display library; also called SCF_(K91E,L98R); source: purified in non-glycosylated form (production described in the Supplementary Materials)) EGICRNRVTNNVKDVTKLVANLPKDYMITLKYVPGMDVLPSHCWISEMLVQLSDSLTDLLDKLSNISEGLSNYSIIDKLVNIVDDLVECVEENSSKDRKKSFKSPEPRLFTPEEFFRIFNRSIDAFKDFVVASETSDCVVSSTLSPEKDSRVSVTKPFMLPPVAASSLRNDSSSSNRKAKNPPGDSSLH	–	40.7 nM

Other lines, results leading:

stoichiometry N [1]	Kd [2]	Molecule
2	–	SCFM, stem cell factor V49L F63L double mutant, soluble (from UniProt P21583 26-214) (ligand)
–	74.4 nM	SCF_(M,S64P,F126S,V131A,E134G,V139I), soluble (ligand, UniProt P21583 26-214, looked up, stem cell factor (SCF), SCFM (V49L, F63L) with S64P, F126S, V131A, E134G and V139I, selected from the first-generation yeast display library; also called SCFM,N; source: purified in non-glycosylated form (production described in the Supplementary Materials)) EGICRNRVTNNVKDVTKLVANLPKDYMITLKYVPGMDVLPSHCWISEMLVQLSDSLTDLLDKLPNISEGLSNYSIIDKLVNIVDDLVECVKENSSKDLKKSFKSPEPRLFTPEEFFRIFNRSIDASKDFVAASGTSDCIVSSTLSPEKDSRVSVTKPFMLPPVAASSLRNDSSSSNRKAKNPPGDSSLH
